{"source": "patent US20240374603A1", "about": "“PHARMACEUTICAL PREPARATION, PREPARATION METHOD THEREFOR AND USE THEREOF” (COHERENT BIOPHARMA (SUZHOU) LIMITED, priority 2021, published 2024)", "key": {"[1]": {"assay": "Final prescription and process confirmation, stability at 25° C. and 40° C.", "type": "physicochemical", "conditions": "final prescription (Example 7); for % Moisture / % Total impurity / Re-dissolution time s: freeze-dried; for pH value: re-dissolution pH", "procedure": "In view of the results of the prescription screening experiment, the prescription process confirmation experiment was carried out to investigate the stability of the final prescription."}, "[2]": {"assay": "pH confirmation in freeze-dried form, stability at 30° C. for 1 month", "type": "physicochemical", "conditions": "pH range of 6.9 to 7.7, 30° C. for 1 month", "procedure": "An aqueous solution containing LDC10B (5 mg/mL), mannitol (40 mg/mL), sucrose (10 mg/mL) and tromethamine (0.765 mg/mL) was prepared, and the pH was adjusted to 6.9, 7.3 and 7.7 with dilute hydrochloric acid, respectively; the resulting solutions were filtered and sub-packaged into vials, half of a stopper was pressed into the vial, freeze-drying was performed, and the vials were capped. The stability of each sample was investigated at 30° C. for 1 month."}}, "note": "*1 amine or outer side, *2 acyl side, *3 side chain or, on linkers, in order; H or OH if unused. Where a SMILES comes first, the peptide text is derived from it. Bridges are numbered along the chain shown (N, C = ends). Roman numbers before positions name the chains, in order. [ ]: non-standard residue; d: D form. The star is where a group is joined. ξ: configuration not given here. Hexanoyl(6-succinimido-3yl) = O=C1CC([*:1])C(=O)N1CCCCCC(=O)[*:2]; Pteroyl = Nc1nc2ncc(CNc3ccc(C(=O)*)cc3)nc2c(=O)[nH]1; Dolaproine(all-ξ) = COC(C(C)C(=O)[*:2])C1CCCN1[*:1]; X1 = CCC(C)C(C(CC(=O)[*:2])OC)N(C)[*:1]; γGlu = O=C(O)[CH](CCC(=O)[*:2])N[*:1]; PABC = O=C(OCc1ccc(N[*:1])cc1)[*:2]; Cit = NC(=O)NCCC[CH](N)C(=O)O; NMeV = CN[CH](C(=O)O)C(C)C; X2 = CC(N*)C(O)c1ccccc1"}
{"smiles": "CCC(C)C(C(CC(=O)N1CCCC1C(OC)C(C)C(=O)NC(C)C(O)c1ccccc1)OC)N(C)C(=O)C(NC(=O)C(C(C)C)N(C)C(=O)OCc1ccc(NC(=O)C(CCCNC(N)=O)NC(=O)C(NC(=O)CCCCCN2C(=O)CC(SCC(NC(=O)CCC(NC(=O)c3ccc(NCc4cnc5[nH]c(N)nc(=O)c5n4)cc3)C(=O)O)C(=O)NC(CCCCN)C(=O)NC(CCC(=O)O)C(=O)NC(Cc3ccccc3)C(=O)NC(CC(C)C)C(=O)NC(Cc3cnc[nH]3)C(=O)N3CCCC3C(=O)NC(CO)C(=O)NC(CCCCN)C(=O)NC(C(=O)NC(CC(=O)O)C(=O)NC(CC(C)C)C(=O)N3CCCC3C(=O)NC(CCCNC(=N)N)C(=O)O)C(C)C)C2=O)C(C)C)cc1)C(C)C", "note": "(stereo not shown) [LDC10B] (I: {Pteroyl-γGlu}-CKEFLHPSKVDLPR-OH / II: V[Cit][PABC][NMeV]V[X1][Dolaproine(all-ξ)]-X2; linker I:1-II:N via Hexanoyl(6-succinimido-3yl); configuration not given here)", "values": [{"measurement": "% Moisture", "setting": "[1]; 25° C., 0 day", "result": 0.42, "unit": "%"}, {"measurement": "% Total impurity", "setting": "[1]; 25° C., 0 day", "result": 0.44, "unit": "%"}, {"measurement": "Re-dissolution time s", "setting": "[1]; 25° C., 0 day", "result": 160, "unit": "s"}, {"measurement": "% Moisture", "setting": "[1]; 25° C., 1 month", "result": 1.79, "unit": "%"}, {"measurement": "% Total impurity", "setting": "[1]; 25° C., 1 month", "result": 0.51, "unit": "%"}, {"measurement": "Re-dissolution time s", "setting": "[1]; 25° C., 1 month", "result": 154, "unit": "s"}, {"measurement": "% Moisture", "setting": "[1]; 25° C., 2 months", "result": 1.97, "unit": "%"}, {"measurement": "% Total impurity", "setting": "[1]; 25° C., 2 months", "result": 0.61, "unit": "%"}, {"measurement": "Re-dissolution time s", "setting": "[1]; 25° C., 2 months", "result": 114, "unit": "s"}, {"measurement": "% Moisture", "setting": "[1]; 25° C., 3 months", "result": 2.19, "unit": "%"}, {"measurement": "% Total impurity", "setting": "[1]; 25° C., 3 months", "result": 0.81, "unit": "%"}, {"measurement": "Re-dissolution time s", "setting": "[1]; 25° C., 3 months", "result": 174, "unit": "s"}, {"measurement": "% Moisture", "setting": "[1]; 25° C., 6 months", "result": 2.62, "unit": "%"}, {"measurement": "% Total impurity", "setting": "[1]; 25° C., 6 months", "result": 1.21, "unit": "%"}, {"measurement": "Re-dissolution time s", "setting": "[1]; 25° C., 6 months", "result": 128, "unit": "s"}, {"measurement": "% Moisture", "setting": "[1]; 40° C., 0 day", "result": 1.2, "unit": "%"}, {"measurement": "% Total impurity", "setting": "[1]; 40° C., 0 day", "result": 0.33, "unit": "%"}, {"measurement": "Re-dissolution time s", "setting": "[1]; 40° C., 0 day", "result": 148, "unit": "s"}, {"measurement": "% Moisture", "setting": "[1]; 40° C., 5 day", "result": 1.0, "unit": "%"}, {"measurement": "% Total impurity", "setting": "[1]; 40° C., 5 day", "result": 0.48, "unit": "%"}, {"measurement": "Re-dissolution time s", "setting": "[1]; 40° C., 5 day", "result": 139, "unit": "s"}, {"measurement": "% Moisture", "setting": "[1]; 40° C., 10 day", "result": 1.2, "unit": "%"}, {"measurement": "% Total impurity", "setting": "[1]; 40° C., 10 day", "result": 0.54, "unit": "%"}, {"measurement": "Re-dissolution time s", "setting": "[1]; 40° C., 10 day", "result": 118, "unit": "s"}, {"measurement": "% Moisture", "setting": "[1]; 40° C., 30 day", "result": 1.8, "unit": "%"}, {"measurement": "% Total impurity", "setting": "[1]; 40° C., 30 day", "result": 0.69, "unit": "%"}, {"measurement": "Re-dissolution time s", "setting": "[1]; 40° C., 30 day", "result": 135, "unit": "s"}, {"measurement": "pH value", "setting": "[1]; 25° C., 0 day", "result": 7.4}, {"measurement": "pH value", "setting": "[1]; 25° C., 1 month", "result": 7.5}, {"measurement": "pH value", "setting": "[1]; 25° C., 2 months", "result": 7.2}, {"measurement": "pH value", "setting": "[1]; 25° C., 3 months", "result": 7.4}, {"measurement": "pH value", "setting": "[1]; 25° C., 6 months", "result": 7.3}, {"measurement": "pH value", "setting": "[1]; 40° C., 0 day", "result": 7.4}, {"measurement": "pH value", "setting": "[1]; 40° C., 5 day", "result": 7.1}, {"measurement": "pH value", "setting": "[1]; 40° C., 10 day", "result": 7.3}, {"measurement": "pH value", "setting": "[1]; 40° C., 30 day", "result": 7.4}, {"measurement": "quality of the freeze-dried preparation", "setting": "[2]", "result": "stable"}]}
